Patent US8916149B2, “Preventing and treating sepsis” (University of Rochester, priority 2008, dated 2014)

What was measured:
human neutrophils [1] = test: Random migration of neutrophils on FN-coated cover glass (live-cell imaging); assay type: cell-based
Experimental: Delta T dishes were coated with human FN (50 μg/ml, BD Biosciences, San Jose, Calif.) for overnight at 4° C. and then for 4 h at room temperature. Plates were then rinsed with L-15 media. […] The cells were then added to FN-coated dishes in 1.5 ml of L-15 with 2 mg/ml of glucose. For neutrophil live cell staining, 2 μM Green Cell Tracker CMFDA (5-chloromethylfluorescein diacetate; Molecular Probes, Carlsbad, Calif.) was used. Temperature was maintained at 37° C. throughout the experiment using a FCS2 live-cell imaging chamber (Bioptechs, Butler, Pa.). Images were acquired for 30 to 60 minutes under a 10× objective lens using a Nikon TE-2000U inverted microscope. Phase contrast images were acquired every 5 seconds and fluorescence images every 30 seconds. Cell paths were traced using MetaVue™ imaging software (Molecular Devices Corporation, Downingtown, Pa.).
Random migration was investigated by adding fMLP or IL-8 to media at a final concentration of 10^−8M and analyzed by manually tracing the outline of each cell in selected frames (i.e., at 50 second intervals). The x and y coordinates of each cell were measured using ImageJ software and were corrected so that the starting position was x=0 and y=0.
The time-lapsed images of migrating neutrophils were taken under phase contrast microscopy. Each image was thresholded and binarized based on brightness to define the centroids of the neutrophils. The closest centroids between consecutive images were linked as a trajectory under the assumption that these centroids were made by the same neutrophil. The maximum distance between the closest centroids was also defined to preclude the artifacts due to cells moving into and out of the field of view.

α5β1 = target: T1, α5β1 (Homo sapiens, UniProt P05556+P08648); test: Solid phase integrin ligand binding assay; conditions: 1 mM Mn2+, 1 mM Ca2+, 1 mM Mg2+
T1 construct: purchased US Biological, Swampscott, Mass
Experimental: (§1) The solid phase binding assay was performed using purified soluble human α3β1, α5β1, and αVβ3 (US Biological, Swampscott, Mass.). Two (2) μg/ml of soluble integrins were added to microtiter wells for capture with immobilized monoclonal antibody against β1 or β3 subunits (mAb TS2/6 for β1 and mAb BB10 (Chemicon, Temecula, Calif.) for β3 integrins). […] After washing, bound APC was chromogenically detected by peroxidase-streptavidin conjugate anti-PC (Diapharma, West Chester, Ohio) or chromogenic substrate S-2366 (Diapharma, West Chester, Ohio). To minimize dissociation, all wash buffers contained 1 mM Mn^2+, and <15 minutes elapsed between the end of binding and beginning of color development. Functional blocking antibodies for integrins were from Chemicon (Temecula, Calif.).
(§2) Among the neutrophil integrins that recognize the RGD motif, α3β1, α5β1, and αVβ3 are key in regulating neutrophil chemotaxis (Yauch et al., Mol. Biol. Cell 9:2751 (1998); Burns et al., J. Immunol. 166:4644 (2001); Sixt et al., J. Biol. Chem. 276:18878 (2001)). To test whether APC can bind directly to the integrins, an ELISA-like solid phase receptor-binding assay was performed (FIG. 2E). Soluble α3β1, α5β1, and αVβ3 were captured onto microtiter wells using mAbs specific for β1 or β3.

α3β1 = target: T2, α3β1 (Homo sapiens, UniProt P05556+P26006); test: Solid phase integrin ligand binding assay; conditions: 1 mM Mn2+, 1 mM Ca2+, 1 mM Mg2+
T2 construct: purchased US Biological, Swampscott, Mass
Experimental: as §1, §2

human neutrophils [2] = test: rhAPC binding to neutrophils in suspension (chromogenic substrate S-2366); conditions: 1 mM Ca2+ and 1 mM Mg2+ supplemented with 1 mM Mn2+
Experimental: Control (PBS) or rhAPC-treated neutrophils were incubated with the indicated concentrations of MgCl2 and CaCl2. The LIBS of β1 and β3 integrins were detected by B44 and D3 mAb, respectively. *P<0.05 vs. PBS treated cells. […] Experiments were repeated on neutrophil preparations from three independent donors. In FIGS. 2A, 2C, 2D, 2E, and 2F, results are expressed as mean±SEM of three independent experiments.
The best characterized integrin binding motif is the RGD sequence, which is present in FN, fibrinogen, von Willebrand factor, vitronectin, and a variety of other adhesion proteins. Many integrins that bind to extracellular protein ligands including α3β1, α5β1, αIIbβ3, and αVβ3, specifically interact with the RGD sequence of their target proteins. […] To test this hypothesis, rhAPC-binding assays were performed with neutrophils in suspension. The assay buffer containing 1 mM Ca^2+ and 1 mM Mg^2+ was supplemented with 1 mM Mn^2+ to activate cell surface integrins.

neutrophil = conditions: without any protein coatings; cited from earlier work

T1 sequence (P08648 42-894 limits assumed): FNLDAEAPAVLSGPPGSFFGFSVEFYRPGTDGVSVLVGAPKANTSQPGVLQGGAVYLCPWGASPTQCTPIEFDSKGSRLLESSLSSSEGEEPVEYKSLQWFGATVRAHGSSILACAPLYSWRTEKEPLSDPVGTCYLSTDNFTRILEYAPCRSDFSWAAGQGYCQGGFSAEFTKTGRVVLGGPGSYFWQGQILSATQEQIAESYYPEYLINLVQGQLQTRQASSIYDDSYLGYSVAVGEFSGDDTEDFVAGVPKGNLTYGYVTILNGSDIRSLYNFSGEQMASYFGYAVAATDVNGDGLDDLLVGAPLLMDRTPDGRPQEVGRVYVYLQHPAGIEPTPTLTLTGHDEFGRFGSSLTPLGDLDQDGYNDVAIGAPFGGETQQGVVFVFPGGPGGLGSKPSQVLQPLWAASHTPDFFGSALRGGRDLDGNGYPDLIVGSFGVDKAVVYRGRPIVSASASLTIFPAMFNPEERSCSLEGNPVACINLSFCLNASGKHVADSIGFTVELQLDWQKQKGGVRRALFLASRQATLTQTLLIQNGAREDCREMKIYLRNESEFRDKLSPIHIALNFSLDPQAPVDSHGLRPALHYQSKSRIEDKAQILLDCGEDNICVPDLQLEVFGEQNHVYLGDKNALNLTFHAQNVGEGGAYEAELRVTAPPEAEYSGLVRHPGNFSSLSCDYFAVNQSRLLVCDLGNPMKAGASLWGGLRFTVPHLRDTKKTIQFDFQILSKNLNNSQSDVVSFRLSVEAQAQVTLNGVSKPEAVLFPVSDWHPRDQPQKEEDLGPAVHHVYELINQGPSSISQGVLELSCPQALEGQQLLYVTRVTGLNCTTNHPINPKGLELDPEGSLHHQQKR
T1 sequence (P08648 895-1049 partner limits assumed): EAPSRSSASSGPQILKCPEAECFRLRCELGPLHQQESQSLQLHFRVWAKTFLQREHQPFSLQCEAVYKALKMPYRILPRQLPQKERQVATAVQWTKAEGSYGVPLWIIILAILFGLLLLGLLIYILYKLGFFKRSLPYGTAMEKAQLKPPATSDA
T1 sequence (P05556 21-798): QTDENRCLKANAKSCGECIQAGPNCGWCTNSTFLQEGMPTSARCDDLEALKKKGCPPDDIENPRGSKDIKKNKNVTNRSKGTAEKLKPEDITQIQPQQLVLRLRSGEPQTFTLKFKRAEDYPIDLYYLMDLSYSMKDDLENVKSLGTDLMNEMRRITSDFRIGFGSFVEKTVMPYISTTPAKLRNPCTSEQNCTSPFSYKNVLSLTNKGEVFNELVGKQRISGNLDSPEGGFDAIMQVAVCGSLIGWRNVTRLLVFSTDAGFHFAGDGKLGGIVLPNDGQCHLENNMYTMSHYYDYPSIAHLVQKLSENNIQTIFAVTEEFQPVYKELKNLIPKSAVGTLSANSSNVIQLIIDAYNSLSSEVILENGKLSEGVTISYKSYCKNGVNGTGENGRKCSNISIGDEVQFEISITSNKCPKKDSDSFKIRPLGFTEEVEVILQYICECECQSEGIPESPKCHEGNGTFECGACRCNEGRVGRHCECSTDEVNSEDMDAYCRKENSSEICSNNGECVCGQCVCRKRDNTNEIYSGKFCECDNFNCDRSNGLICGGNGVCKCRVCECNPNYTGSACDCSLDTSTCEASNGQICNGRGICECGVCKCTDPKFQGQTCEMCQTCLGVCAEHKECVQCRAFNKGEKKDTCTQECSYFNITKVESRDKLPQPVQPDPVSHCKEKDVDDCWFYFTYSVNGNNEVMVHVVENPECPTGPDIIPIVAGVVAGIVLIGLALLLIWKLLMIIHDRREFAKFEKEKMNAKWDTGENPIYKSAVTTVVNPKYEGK
T2 sequence (P26006 33-872 limits assumed): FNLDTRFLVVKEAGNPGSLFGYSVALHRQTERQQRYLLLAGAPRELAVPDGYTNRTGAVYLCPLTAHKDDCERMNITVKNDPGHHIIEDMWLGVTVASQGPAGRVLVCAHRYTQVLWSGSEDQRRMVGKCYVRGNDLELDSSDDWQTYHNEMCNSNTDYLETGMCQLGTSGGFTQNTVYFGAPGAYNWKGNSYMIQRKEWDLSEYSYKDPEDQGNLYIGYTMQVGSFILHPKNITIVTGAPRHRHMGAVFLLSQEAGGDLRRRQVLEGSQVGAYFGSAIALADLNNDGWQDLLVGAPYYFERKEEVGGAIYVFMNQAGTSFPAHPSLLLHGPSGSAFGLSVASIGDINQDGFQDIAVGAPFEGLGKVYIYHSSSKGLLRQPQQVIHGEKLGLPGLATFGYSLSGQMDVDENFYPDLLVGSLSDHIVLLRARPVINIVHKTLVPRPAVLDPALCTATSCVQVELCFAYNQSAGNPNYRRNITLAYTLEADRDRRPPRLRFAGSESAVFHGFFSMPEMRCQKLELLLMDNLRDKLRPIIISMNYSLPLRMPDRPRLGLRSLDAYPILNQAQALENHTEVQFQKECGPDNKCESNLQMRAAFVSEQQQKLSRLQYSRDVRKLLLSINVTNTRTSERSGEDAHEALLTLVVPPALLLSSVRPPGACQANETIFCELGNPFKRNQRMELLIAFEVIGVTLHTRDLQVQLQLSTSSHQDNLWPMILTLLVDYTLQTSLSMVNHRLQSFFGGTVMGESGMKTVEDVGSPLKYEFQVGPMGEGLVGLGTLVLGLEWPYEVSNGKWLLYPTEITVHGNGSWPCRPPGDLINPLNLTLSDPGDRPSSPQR
T2 sequence (P26006 876-1051 partner limits assumed): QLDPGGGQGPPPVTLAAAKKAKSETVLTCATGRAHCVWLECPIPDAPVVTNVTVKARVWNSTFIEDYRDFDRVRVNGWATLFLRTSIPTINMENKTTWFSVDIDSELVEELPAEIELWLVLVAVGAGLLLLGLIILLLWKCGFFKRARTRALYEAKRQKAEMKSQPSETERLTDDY
T2 sequence (P05556 21-798): as the sequence (P05556 21-798) above

B1: rhAPC: Recombinant human activated protein C obtained from Eli Lilly; FDA-approved drug for severe sepsis (protein)
chain 1: ANSFLEELRHSSLERECIEEICDFEEAKEIFQNVDDTLAFWSKHVDGDQCLVLPLEHPCASLCCGHGTCIDGIGSFSCDCRSGWEGRFCQREVSFLNCSLDNGGCTHYCLEEVGWRRCSCAPGYKLGDDLLQCHPAVKFPCGRPWKRMEKKRSHL
chain 2: LIDGKMTRRGDSPWQVVLLDSKKKLACGAVLIHPSWVLTAAHCMDESKKLLVRLGEYDLRRWEKWELDLDIKEVFVHPNYSKSTTDNDIALLHLAQPATLSQTIVPICLPDSGLAERELNQAGQETLVTGWGYHSSREKEAKRNRTFVLNFIKIPVVPHNECSEVMSNMVSENMLCAGILGDRQDACEGDSGGPMVASFHGTWFLVGLVSWGEGCGLLHNYGVYTKVSRYLDWIHGHIRDKEAPQKSWAP
Human neutrophils [1]; 10 μg/ml protein, fMLP
  random migration of neutrophils on FN induced by fMLP: dramatically reduced
Human neutrophils [1]; rhAPC pre-treatment, IL-8
  neutrophil migration on FN by IL-8: dramatically decreased
α5β1
  direct binding to soluble α5β1: bound
α3β1
  direct binding to soluble α3β1: bound
Human neutrophils [2]
  rhAPC binding to the neutrophil surface: significantly increased
neutrophil
  neutrophil migration through nitrocellulose micropore filter: inhibited
